Test results as given in article PMC5493779, “Recognition of a glycosylation substrate by the O-GlcNAc transferase TPR repeats” (Open Biology, 2017).
Each block holds one binder with its values, some of them ahead of it. Where no end group is shown, it is not given here.

Legend:
[1] = biological target: His6-hOGT (312-1031) 5N5A quintuple mutant (human) (UniProt O15294)
[2] = biological target: T1, human O-GlcNAc transferase, truncated (315-1031), as it stands in the substrate:OGT fusion proteins (human, UniProt O15294-3 315-1031); experiment: crystal structure; substrate peptide fused through a 3xGly linker to the N-terminus of OGT 315-1031 (one chain); about 10 mg/ml protein with 5 mM UDP, sitting drop, 0.1 M Tris pH 8.5; one molecule per asymmetric unit; details: both partners purified
T1 construct: human O-GlcNAc transferase (OGT), codon-optimised, residues 315-1031 starting at Thr315; holds TPR repeats and the catalytic domain; In the crystals this stretch is joined on one chain to the substrate peptide (m2 or m3) by a GGG linker; the whole chains are m4 and m5; also called hOGT; source: E. coli BL21 (DE3) pLysS, purified (Ni-NTA, anion exchange, gel filtration) as part of the fusion …
T1 sequence (looked up): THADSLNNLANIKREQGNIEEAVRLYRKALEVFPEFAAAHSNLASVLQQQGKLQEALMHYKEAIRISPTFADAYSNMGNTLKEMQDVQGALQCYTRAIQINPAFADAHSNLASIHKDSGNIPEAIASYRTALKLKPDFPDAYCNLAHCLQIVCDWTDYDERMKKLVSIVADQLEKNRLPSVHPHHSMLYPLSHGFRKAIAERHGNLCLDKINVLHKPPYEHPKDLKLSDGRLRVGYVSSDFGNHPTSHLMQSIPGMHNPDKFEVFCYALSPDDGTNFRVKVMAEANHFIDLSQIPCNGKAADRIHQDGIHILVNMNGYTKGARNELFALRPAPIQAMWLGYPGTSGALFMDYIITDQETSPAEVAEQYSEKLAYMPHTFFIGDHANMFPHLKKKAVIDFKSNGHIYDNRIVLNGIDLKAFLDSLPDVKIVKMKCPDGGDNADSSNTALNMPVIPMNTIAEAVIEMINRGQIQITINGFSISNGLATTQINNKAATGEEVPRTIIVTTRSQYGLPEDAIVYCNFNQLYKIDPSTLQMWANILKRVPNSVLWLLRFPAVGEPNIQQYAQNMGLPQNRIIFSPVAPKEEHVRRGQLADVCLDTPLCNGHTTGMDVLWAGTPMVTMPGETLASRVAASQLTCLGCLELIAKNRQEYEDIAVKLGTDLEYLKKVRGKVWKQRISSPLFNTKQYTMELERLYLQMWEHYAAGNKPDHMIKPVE

[3] = biological target: T2, His6-hOGT (312-1031), wild type (human) (UniProt O15294)
T2 sequence: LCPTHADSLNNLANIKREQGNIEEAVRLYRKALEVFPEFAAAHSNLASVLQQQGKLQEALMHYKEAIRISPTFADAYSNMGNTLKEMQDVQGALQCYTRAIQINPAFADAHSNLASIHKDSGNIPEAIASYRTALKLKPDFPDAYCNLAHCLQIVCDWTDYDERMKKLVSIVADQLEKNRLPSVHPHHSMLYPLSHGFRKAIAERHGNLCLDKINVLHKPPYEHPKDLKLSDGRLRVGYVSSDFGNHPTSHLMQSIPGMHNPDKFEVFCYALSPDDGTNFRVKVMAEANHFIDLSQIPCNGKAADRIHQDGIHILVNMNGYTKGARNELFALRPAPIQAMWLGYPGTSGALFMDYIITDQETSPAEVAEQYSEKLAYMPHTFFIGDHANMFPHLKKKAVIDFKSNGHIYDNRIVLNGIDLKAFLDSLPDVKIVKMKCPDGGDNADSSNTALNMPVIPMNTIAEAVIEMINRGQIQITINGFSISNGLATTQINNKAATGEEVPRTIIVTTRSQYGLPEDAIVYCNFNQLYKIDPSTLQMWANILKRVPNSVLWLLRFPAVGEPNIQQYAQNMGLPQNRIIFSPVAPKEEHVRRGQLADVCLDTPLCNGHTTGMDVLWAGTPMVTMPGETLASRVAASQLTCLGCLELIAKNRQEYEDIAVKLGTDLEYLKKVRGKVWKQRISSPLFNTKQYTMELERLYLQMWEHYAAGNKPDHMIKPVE

- reduction of glycosyltransferase activity on TAB1 (7-409) against WT OGT, western blot with an O-GlcNAc Ser395 specific antibody, quantified [1]: 50%
B1: TAB1 (7-409) protein (domain or fragment)
chain: SLLQSEQQPSWTDDLPLCHLSGVGSASNRSYSADGKGTESHPPEDSWLKFRSENNCFLYGVFNGYDGNRVTNFVAQRLSAELLLGQLNAEHAEADVRRVLLQAFDVVERSFLESIDDALAEKASLQSQLPEGVPQHQLPPQYQKILERLKTLEREISGGAMAVVAVLLNNKLYVANVGTNRALLCKSTVDGLQVTQLNVDHTTENEDELFRLSQLGLDAGKIKQVGIICGQESTRRIGDYKVKYGYTDIDLLSAAKSKPIIAEPEIHGAQPLDGVTGFLVLMSEGLYKALEAAHGPGQANQEIAAMIDTEFAKQTSLDAVAQAVVDRVKRIHSDTFASGGERARFCPRHEDMTLLVRNFGYPLGEMSQPTPSPAPAAGGRVYPVSVPYSSAQSTSKTSVTLSL

- binding result [2]: binds
B2: 18-mer TAB1 peptide derived from the S395 glycosylation site (VPYSSAQSTSKTSVTLSL) (peptide)
peptide: VPYSSAQSTSKTSVTLSL
modifications: also: O-GlcNAc on Ser395
notes: In the crystal its C-terminus is joined by a GGG linker to Thr315 of OGT on one chain; the whole chain is m5; Extra density near Ser396 and Ser399 hints at further glycosylation; also called TAB1 C-terminal domain; source: E. coli BL21 (DE3) pLysS, purified (Ni-NTA, anion exchange, gel filtration) as part of the fusion protein

- binding result [2]: binds
B3: 18-mer HCF1PRO repeat peptide (PPCETHETGTTNTATTAT) (peptide)
peptide: PPCETHETGTTNTATTAT
notes: host cell factor 1 (HCF1), one repeat of the proteolytic processing domain; In the crystal its C-terminus is joined by a GGG linker to Thr315 of OGT on one chain; the whole chain is m4; The PreScission site of the vector was replaced by the peptide and linker; also called HCF1 peptide; host cell factor 1 PPD repeat; source: E. coli BL21 (DE3) pLysS, purified (Ni-NTA, anion exchange, gel …)

- KM of the TAB1 peptide in steady-state kinetics of O-GlcNAc transfer (50 nM hOGT, 50 µM UDP-GlcNAc, UDP formation by fluorescence) [3]: 42 µM
Binder: KKPVSVPYSSAQSTSKTSVTLSL [free TAB1 peptide …]
